The series deals with MS2 coat protein. The experiment in a line: apparent KD of MS2 coat protein; designed switch direction (-1 OFF switch, 1 ON switch): -1; higher = weaker reporter binding. In outline:
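For each design, the apparent KD is the median over clusters of curves fitted to normalised cluster fluorescence. Clusters held RNA switches with common flanks, transcribed on Illumina chips by stalled E. coli RNA polymerase. These were titrated with SNAP-549-labelled MS2 coat protein, doubling from 0.7 or 1.5 nM to 3 µM, without input, with 200 uM small-molecule ligand, or with an oligonucleotide input.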

The mark [1] stands for this setting: input ligand: microRNA oligo, concentration not stated.
The mark [2] stands for this setting: Eterna round: R95, input ligand: microRNA oligo, concentration not stated.
Setting [3] is: Eterna round: R95, input ligand: FMN 200 uM.
The mark [4] stands for this setting: Eterna round: R95, input ligand: none.

For the sequence “UAUUAGCAAGUGAGAUCCGACAUGAGGAUCACCCAUGUGCUCGUCUUAUAAGGUAAUAUGACAAAAGUCAUAUUACC [Elimod 5 - Jieux - Sensor, turn-off variant 1] (Eterna round: R97, puzzle: Sensor, turn-off variant 1)”, the “apparent KD of MS2 coat protein” value reads like this: (input ligand: FMN 200 uM) 301 nM; (input ligand: none) 293 nM.

As to “AACUCAUGUUCAGGAUAUCGCGUUCCAAAGACAUGAGAAGGGAACAUGAGGAUCACCCAUGUGCCCGGUCUCAGACCGGGCUUC [Legebi] (Eterna round: R96, puzzle: Exclusion NG 1)”, the “apparent KD of MS2 coat protein” value amounted to 272 nM (input ligand: FMN 200 uM), 71 nM under setting [1] and 97.1 nM (input ligand: none).

For the sequence “AUCAUGUCAGGAUAUAUGACAUGGCUCUUCGGAGCAAGCUCAUAGAAGGGACAUGAGGAUCACCCAUGUAGAGC [Ex4-3: 22] (puzzle: Exclusion 4)”, under setting [2], the “apparent KD of MS2 coat protein” value stood at 22.1 nM.

On to “UAUUAGUAAGGAUAUGCGACGUAGGACGAAAGUCCUACGUCGCAGAAGGUACAUGAGGAUCACCCAUGUCUAUU [Mod of Fisker 11 - Jieux - Exclusion 4] (Eterna round: R97, puzzle: Exclusion 4)”, for which the “apparent KD of MS2 coat protein” value is 20.5 nM (input ligand: FMN 200 uM) and 18.7 nM (input ligand: none).

“AUGAGGUUAGGAUAUACAUGAGGAUCACCCAUGUUGGAGAAGGAAAUGUAAGUAGCGAGUAGAAGGAACGGAGC [JR_Exclu3_Sub059] (puzzle: Exclusion 3)”: the “apparent KD of MS2 coat protein” value under setting [2] amounted to 44.1 nM.

On to “AUAGUAGAAGUGAGGAUAUCGUAGAUUUUAGGAAACGAGAAGGCACAUGAGGAUCACCCAUGUAAGAUGGAGGU [JR_BMOE4_Sub051] (Eterna round: R96, puzzle: Brourd's mod of Exclusion 4)”, for which the “apparent KD of MS2 coat protein” value reads like this: (input ligand: FMN 200 uM) 380 nM; under setting [1], 126 nM; (input ligand: none) 132 nM.

Take “UGCUGACGAGGAUAUACAUGAGGAUCACCCAUGUUGGUCAAGCGACGAUAGUCGCAAUGUAGAAGGCGUCAGCA [E3/8-A2] (Eterna round: R97, puzzle: Exclusion 3)”: the “apparent KD of MS2 coat protein” value is 239 nM (input ligand: FMN 200 uM) and 405 nM (input ligand: none).

Regarding “UUUUUAUCUGAAGGAUAUACUUAACAUGAGGAUCACCCAUGUGGUGUUGUGAGUGAGUGAGUUUAGUAGAAGGUCAAUUAUUUU [JMF's solution 19] (Eterna round: R96, puzzle: Exclusion NG 2)”, the “apparent KD of MS2 coat protein” value was 1310 nM (input ligand: FMN 200 uM), 392 nM under setting [1] and 380 nM (input ligand: none).

In the case of “AUUAAUUGUCAGAUGGGUGACAUGAGGAUCACCCAUGUCACAAGCUUUUUGCUCGUCUUAUAAUUAACCCAUCUGAC [Stov1/11-A2] (Eterna round: R97, puzzle: Sensor, turn-off variant 1)”, the “apparent KD of MS2 coat protein” value is, setting by setting: (input ligand: FMN 200 uM) 14.1 nM; (input ligand: none) 13.3 nM.

Turning to “CCAAGCUUAUUCAUUAACCACAUGAGGAUCACCCAUGUAUAGGCAAUUAUGACUGGGCUCUUUGGUGCUCGUCUUAU [Sensor-V1 #26] (Eterna round: R97, puzzle: Sensor, turn-off variant 1)”, the “apparent KD of MS2 coat protein” value by setting is: (input ligand: FMN 200 uM) 11.5 nM; (input ligand: none) 11.7 nM.

For the sequence “CUGGUCCGAGGAUAUAUGAUGUGAAACAUGAGGAUCACCCAUGUAAUAUUAUGGAUGUAAAUAGAAGGCGGACUAG [JL-ex5-3.08] (puzzle: Exclusion 5)”, the “apparent KD of MS2 coat protein” value is, setting by setting: under setting [3], 37.8 nM; under setting [2], 33.9 nM; under setting [4], 74.2 nM.

Turning to “GUUUGAUUAGGAUAUACAUGAGGAUCACCCAUGUGUCCCAGUUUAGAAAUAGACAAAAGUAGAAGGGAUUAGAU [Starry 2] (Eterna round: R97, puzzle: Exclusion 3)”, the “apparent KD of MS2 coat protein” value worked out at 37.8 nM (input ligand: FMN 200 uM) and 45.8 nM (input ligand: none).

Take “UUUAAUUUUUUUUUUUUACAAGCUUUUUGCUCGUCUUAUACAUGAGGAUCACCCAUGUGAGUGGAAGAUAAAUUAUC [JMF 11] (puzzle: Sensor v3, turn-off variant 2)”: the “apparent KD of MS2 coat protein” value is 15.1 nM under setting [3], 15 nM under setting [2] and 17.9 nM under setting [4].

As to “UGUACUAUGCGUGCUGACAUGCGUAGUGCAGCAGGUGUUACAUGAGGAUCACCCAUGUCCUCAUUUGCUCGUCUUAU [SL-sv3-2.07 JL mod] (puzzle: Sensor v3, turn-off variant 2)”, the “apparent KD of MS2 coat protein” value is, setting by setting: under setting [3], 189 nM; under setting [2], 200 nM; under setting [4], 215 nM.

On to “AGUCGGUCAGGAUAUGCAAUUGUGGACAUGAGGAUCACCCAUGUAACGUGGGCUUGGUUUGUAGAAGGGACGUGCA [EX5 #90] (Eterna round: R97, puzzle: Exclusion 5)”, for which the “apparent KD of MS2 coat protein” value runs as follows: (input ligand: FMN 200 uM) 378 nM; (input ligand: none) 626 nM.

For “GUGCAACAUGAGGAUCACCCAUGUGAGGAUAUGCGAAUUUCAUCAAAAGAUGAAAUUUGCAGAAGGCACAGCAC [Omei Ex1 A13] (Eterna round: R97, puzzle: Exclusion 1)”, the “apparent KD of MS2 coat protein” value (input ligand: FMN 200 uM) amounted to 20.5 nM and the “apparent KD of MS2 coat protein” value (input ligand: none) was 15.9 nM.

Consider “CUAUUACGAGGAUAUGAUUUAAAUAACAUGAGGAUCACCCAUGUUUUUACGUUAUUAUGUUCAGAAGGCGUAUUGU [JR_E5_Sub025] (puzzle: Exclusion 5)”, for which the “apparent KD of MS2 coat protein” value under setting [2] was determined as 28 nM.

“CCGAGGUGGCGGUCCUAUGACAUGAGGAUCACCCAUGUACCUCGCCACAAGCUCUUUGCUCAUCUUAUAGUUCUCGG [Onlaor] (Eterna round: R96, puzzle: Sensor v3, turn-off variant 1)”: the “apparent KD of MS2 coat protein” value reads like this: (input ligand: FMN 200 uM) 19.9 nM; under setting [1], 132 nM; (input ligand: none) 24.5 nM.

As to “CGGUGCUGAGGAUAUACAUGAGGAUCACCCAUGUGUUCCAGCUAGCGUACUGGCAGGUGUAGAAGGCGGUACUG [JL-ex3-3.41 Brourd mod] (puzzle: Exclusion 3)”, the “apparent KD of MS2 coat protein” value under setting [3] worked out at 68.7 nM, the “apparent KD of MS2 coat protein” value under setting [2] worked out at 18.7 nM and the “apparent KD of MS2 coat protein” value under setting [4] was 20.1 nM.

For the sequence “AAAUUAAGUGUGAGGAUAUGCUGGUCCUUAGAUCAGCAGAAGGCACAUGAGGAUCACCCAUGUAAUAUAUUUAA [Mat - Exclusion 4 - JL Mod - D50] (puzzle: Brourd's mod of Exclusion 4)”, the “apparent KD of MS2 coat protein” value under setting [2] stood at 35.4 nM.

As to “GGGAAGAACCAACAAGUAAACAUGAGGAUCACCCAUGUAAACUUCAUGUGCACGCUUUGCGUGCAAGCUCGUCUUAU [AK-miRNA-r3-14] (Eterna round: R97, puzzle: Sensor, turn-off variant 1)”, the “apparent KD of MS2 coat protein” value amounted to 19.2 nM (input ligand: FMN 200 uM) and 18.6 nM (input ligand: none).

As to “AAAAACAAGCCCAUGCUCGUCUUAAGAUCGAAAGAUCAAACAUGAGGAUCACCCAUGUGCGAGCAUGGGUGAUCCUC [Sensor v2, turn off variant 2 (JL Turnoff v2 4 - MOD3)] (Eterna round: R96, puzzle: Sensor v2, turn-off variant 2)”, the “apparent KD of MS2 coat protein” value is, setting by setting: (input ligand: FMN 200 uM) 21.9 nM; under setting [1], 10.2 nM; (input ligand: none) 16.6 nM.

With “AACCUGAGGCUUUGCUUUAGGUGUACAUGAGGAUCACCCAUGUAGGAUAUGGUAGGCUUUGCUUACCAGAAGGACAUAAUGAUG [JL ENG3 1.16] (Eterna round: R96, puzzle: Exclusion NG 3)”, the “apparent KD of MS2 coat protein” value is, setting by setting: (input ligand: FMN 200 uM) 81.1 nM; under setting [1], 30.6 nM; (input ligand: none) 55.2 nM.

“UUUUAGUAAGGAUAUGUGGUACGCUUAAAAUAGGAAGGGACACAGAAGGUACAUGAGGAUCACCCAUGUGAACC [Eternabot (L1) Solution 49] (Eterna round: R97, puzzle: Exclusion 4)”: the “apparent KD of MS2 coat protein” value was found to be 140 nM (input ligand: FMN 200 uM) and 61.9 nM (input ligand: none).

With “AAAAUGUCAGGAUAUGUGAAAGAAAAGAAAAGAAAAGAAAAACAGAAGGGACAUGAGGAUCACCCAUGUAAGAA [Exclusion 4 #3] (puzzle: Exclusion 4)”, the “apparent KD of MS2 coat protein” value under setting [3] was 21.6 nM, the “apparent KD of MS2 coat protein” value under setting [2] is 25.2 nM and the “apparent KD of MS2 coat protein” value under setting [4] was 27.1 nM.

Consider “ACAUGUCAUUGAGGAUAUUGCACACAUGAGGAUCACCCAUGUAUACGGAUGCUCUUCCGUGAGUUCGAGAAGGCGAUGUACAUU [Ex NG2 #90] (Eterna round: R96, puzzle: Exclusion NG 2)”, for which the “apparent KD of MS2 coat protein” value is, setting by setting: (input ligand: FMN 200 uM) 71.3 nM; under setting [1], 38.6 nM; (input ligand: none) 60.7 nM.

For “GAAGAGACAGGAUAUACAUGAGGAUCACCCAUGUGAGUAUGUUGGAGGCGGAGGAGAUGUAGAAGGGUCAAAGA [JR_Exclu3_Sub018] (puzzle: Exclusion 3)”, the “apparent KD of MS2 coat protein” value worked out at 36.3 nM under setting [3], 23.9 nM under setting [2] and 29.7 nM under setting [4].

Consider “AAGAAUUAGUCAGGAUAUAGCGGCCAAGAACUACUAGAAGGGAUUAGACAUGAGGAUCACCCAUGUGAUCUUUUUGUAGGGACG [Eternabot solution 15] (Eterna round: R96, puzzle: Exclusion NG 1)”, for which the “apparent KD of MS2 coat protein” value by setting is: (input ligand: FMN 200 uM) 32.6 nM; under setting [1], 25.7 nM; (input ligand: none) 41.2 nM.

Consider “GCAGGAUAAGUGAGGAUAUACCUAUGGAUACAUAGGUAGAAGGCACAUGAGGAUCACCCAUGUUACUCGCCUGC [Fiskers BMX 4 - 75] (puzzle: Brourd's mod of Exclusion 4)”, for which the “apparent KD of MS2 coat protein” value runs as follows: under setting [3], 41.7 nM; under setting [2], 12.9 nM; under setting [4], 10.9 nM.

For the sequence “GUAACAUGCUGGUGAUCAUACAUGAGGAUCACCCAUGUAACAAGCUUUUUGCUCGUCUUAUAAUUUAAGAUCACCAG [Stov1/7-A3] (Eterna round: R97, puzzle: Sensor, turn-off variant 1)”, the “apparent KD of MS2 coat protein” value reads like this: (input ligand: FMN 200 uM) 16.3 nM; (input ligand: none) 16.2 nM.

The record behind these values is the supplement of paper PMC9170038.
